Results from patent US20190315837A1.

Target: His-tagged human Her2/Neu protein (Her2-His) (human) (UniProt P04626)
Experiment: Octet (BLI), Her2-His on penta-His biosensor, antibody in solution

- Kd: < 1 pM
- koff: < 1e-07 s⁻¹
- kon: 1.04e+06 M⁻¹ s⁻¹
Substance: human IgG1 control (antibody)
